The results in this text go back to ChEMBL document CHEMBL1212772.

Bounds are passed on as bounds.

Substrate in series [1]: CC1(C)S[C@@H]2[C@H](NC(=O)Cc3ccccc3)C(=O)N2[C@H]1C(=O)O
Nature of the series: (§1) Kcat/Km ratio of Klebsiella pneumoniae KPC-2.

Substrate in series [2]: C[C@@H](O)[C@H]1C(=O)N2C(C(=O)O)=C(S[C@@H]3CN[C@H](C(=O)N(C)C)C3)[C@H](C)[C@H]12
The series is described as §1.

Substrate in series [3]: CC(C)(O/N=C(\C(=O)N[C@@H]1C(=O)N2C(C(=O)[O-])=C(C[n+]3ccccc3)CS[C@H]12)c1csc(N)n1)C(=O)O
The series is described as §1.

Substrate in series [4]: C[C@@H](O)[C@H]1C(=O)N2C(C(=O)O)=C(S[C@@H]3CN[C@H](CNS(N)(=O)=O)C3)[C@H](C)[C@H]12
Described as §1.

Substrate in series [5]: C[C@@H](O)[C@H]1C(=O)N2C(C(=O)O)=C(SCCNC=N)C[C@H]12
The series is described as §1.

Substrate in series [6]: O=C(Cc1cccs1)N[C@@H]1C(=O)N2C(C(=O)[O-])=C(C[n+]3ccccc3)CS[C@H]12
The series is described as §1.

Substrate in series [7]: CC1(C)S[C@@H]2[C@H](NC(=O)Cc3ccccc3)C(=O)N2[C@H]1C(=O)O
Nature of the series: (§2) Activity of Klebsiella pneumoniae KPC-2.

Substrate in series [8]: C[C@@H](O)[C@H]1C(=O)N2C(C(=O)O)=C(S[C@@H]3CN[C@H](C(=O)N(C)C)C3)[C@H](C)[C@H]12
The series is described as §2.

Substrate in series [9]: CC(C)(O/N=C(\C(=O)N[C@@H]1C(=O)N2C(C(=O)[O-])=C(C[n+]3ccccc3)CS[C@H]12)c1csc(N)n1)C(=O)O
The series is described as §2.

Substrate in series [10]: C[C@@H](O)[C@H]1C(=O)N2C(C(=O)O)=C(S[C@@H]3CN[C@H](CNS(N)(=O)=O)C3)[C@H](C)[C@H]12
The series is described as §2.

Substrate in series [11]: C[C@@H](O)[C@H]1C(=O)N2C(C(=O)O)=C(SCCNC=N)C[C@H]12
Described as §2.

Substrate in series [12]: O=C(Cc1cccs1)N[C@@H]1C(=O)N2C(C(=O)[O-])=C(C[n+]3ccccc3)CS[C@H]12
The series is described as §2.

Substrate in series [13]: CC1(C)S[C@@H]2[C@H](NC(=O)Cc3ccccc3)C(=O)N2[C@H]1C(=O)O
In words: (§3) Activity of Pseudomonas aeruginosa OXA-10.

Substrate in series [14]: C[C@@H](O)[C@H]1C(=O)N2C(C(=O)O)=C(S[C@@H]3CN[C@H](C(=O)N(C)C)C3)[C@H](C)[C@H]12
Described as §3.

Substrate in series [15]: CC(C)(O/N=C(\C(=O)N[C@@H]1C(=O)N2C(C(=O)[O-])=C(C[n+]3ccccc3)CS[C@H]12)c1csc(N)n1)C(=O)O
The series is described as §3.

Substrate in series [16]: C[C@@H](O)[C@H]1C(=O)N2C(C(=O)O)=C(S[C@@H]3CN[C@H](CNS(N)(=O)=O)C3)[C@H](C)[C@H]12
Described as §3.

Substrate in series [17]: C[C@@H](O)[C@H]1C(=O)N2C(C(=O)O)=C(SCCNC=N)C[C@H]12
The series is described as §3.

Substrate in series [18]: O=C(Cc1cccs1)N[C@@H]1C(=O)N2C(C(=O)[O-])=C(C[n+]3ccccc3)CS[C@H]12
The description is as §3.

Substrate in series [19]: CC1(C)S[C@@H]2[C@H](NC(=O)Cc3ccccc3)C(=O)N2[C@H]1C(=O)O
Nature of the series: (§4) Kcat/Km ratio of Pseudomonas aeruginosa OXA-10.

Substrate in series [20]: O=C(Cc1cccs1)N[C@@H]1C(=O)N2C(C(=O)[O-])=C(C[n+]3ccccc3)CS[C@H]12
Described as §4.

Substrate in series [21]: CC1(C)S[C@@H]2[C@H](NC(=O)Cc3ccccc3)C(=O)N2[C@H]1C(=O)O
In words: (§5) Activity of Klebsiella pneumoniae SHV-1.

Substrate in series [22]: C[C@@H](O)[C@H]1C(=O)N2C(C(=O)O)=C(S[C@@H]3CN[C@H](C(=O)N(C)C)C3)[C@H](C)[C@H]12
Described as §5.

Substrate in series [23]: C[C@@H](O)[C@H]1C(=O)N2C(C(=O)O)=C(S[C@@H]3CN[C@H](CNS(N)(=O)=O)C3)[C@H](C)[C@H]12
The description is as §5.

Substrate in series [24]: C[C@@H](O)[C@H]1C(=O)N2C(C(=O)O)=C(SCCNC=N)C[C@H]12
Described as §5.

Substrate in series [25]: O=C(Cc1cccs1)N[C@@H]1C(=O)N2C(C(=O)[O-])=C(C[n+]3ccccc3)CS[C@H]12
The description is as §5.

Substrate in series [26]: CC1(C)S[C@@H]2[C@H](NC(=O)Cc3ccccc3)C(=O)N2[C@H]1C(=O)O
Nature of the series: (§6) Kcat/Km ratio of Klebsiella pneumoniae SHV-1.

Substrate in series [27]: C[C@@H](O)[C@H]1C(=O)N2C(C(=O)O)=C(S[C@@H]3CN[C@H](C(=O)N(C)C)C3)[C@H](C)[C@H]12
Described as §6.

Substrate in series [28]: C[C@@H](O)[C@H]1C(=O)N2C(C(=O)O)=C(S[C@@H]3CN[C@H](CNS(N)(=O)=O)C3)[C@H](C)[C@H]12
The series is described as §6.

Substrate in series [29]: C[C@@H](O)[C@H]1C(=O)N2C(C(=O)O)=C(SCCNC=N)C[C@H]12
The series is described as §6.

Substrate in series [30]: O=C(Cc1cccs1)N[C@@H]1C(=O)N2C(C(=O)[O-])=C(C[n+]3ccccc3)CS[C@H]12
The description is as §6.

Substrate in series [31]: CC1(C)S[C@@H]2[C@H](NC(=O)Cc3ccccc3)C(=O)N2[C@H]1C(=O)O
Nature of the series: (§7) Kcat/Km ratio of Pseudomonas aeruginosa IMP-1.

Substrate in series [32]: C[C@@H](O)[C@H]1C(=O)N2C(C(=O)O)=C(S[C@@H]3CN[C@H](C(=O)N(C)C)C3)[C@H](C)[C@H]12
The description is as §7.

Substrate in series [33]: CC(C)(O/N=C(\C(=O)N[C@@H]1C(=O)N2C(C(=O)[O-])=C(C[n+]3ccccc3)CS[C@H]12)c1csc(N)n1)C(=O)O
The description is as §7.

Substrate in series [34]: C[C@@H](O)[C@H]1C(=O)N2C(C(=O)O)=C(S[C@@H]3CN[C@H](CNS(N)(=O)=O)C3)[C@H](C)[C@H]12
Described as §7.

Substrate in series [35]: C[C@@H](O)[C@H]1C(=O)N2C(C(=O)O)=C(SCCNC=N)C[C@H]12
Described as §7.

Substrate in series [36]: O=C(Cc1cccs1)N[C@@H]1C(=O)N2C(C(=O)[O-])=C(C[n+]3ccccc3)CS[C@H]12
Described as §7.

Substrate in series [37]: CC1(C)S[C@@H]2[C@H](NC(=O)Cc3ccccc3)C(=O)N2[C@H]1C(=O)O
In words: (§8) Activity of Pseudomonas aeruginosa IMP-1.

Substrate in series [38]: C[C@@H](O)[C@H]1C(=O)N2C(C(=O)O)=C(S[C@@H]3CN[C@H](C(=O)N(C)C)C3)[C@H](C)[C@H]12
The series is described as §8.

Substrate in series [39]: CC(C)(O/N=C(\C(=O)N[C@@H]1C(=O)N2C(C(=O)[O-])=C(C[n+]3ccccc3)CS[C@H]12)c1csc(N)n1)C(=O)O
The series is described as §8.

Substrate in series [40]: C[C@@H](O)[C@H]1C(=O)N2C(C(=O)O)=C(S[C@@H]3CN[C@H](CNS(N)(=O)=O)C3)[C@H](C)[C@H]12
The series is described as §8.

Substrate in series [41]: C[C@@H](O)[C@H]1C(=O)N2C(C(=O)O)=C(SCCNC=N)C[C@H]12
Described as §8.

Substrate in series [42]: O=C(Cc1cccs1)N[C@@H]1C(=O)N2C(C(=O)[O-])=C(C[n+]3ccccc3)CS[C@H]12
The series is described as §8.

B1: Carbapenem-hydrolyzing beta-lactamase KPC (Klebsiella pneumoniae), Q9F663 (protein)
chain: MSLYRRLVLLSCLSWPLAGFSATALTNLVAEPFAKLEQDFGGSIGVYAMDTGSGATVSYRAEERFPLCSSFKGFLAAAVLARSQQQAGLLDTPIRYGKNALVPWSPISEKYLTTGMTVAELSAAAVQYSDNAAANLLLKELGGPAGLTAFMRSIGDTTFRLDRWELELNSAIPGDARDTSSPRAVTESLQKLTLGSALAAPQRQQFVDWLKGNTTGNHRIRAAVPADWAVGDKTGTCGVYGTANDYAVVWPTGRAPIVLAVYTRAPNKDDKHSEAVIAAAARLALEGLGVNGQ
For the protein B1, the kcat/Km in series [1] worked out at 2e+06 M⁻¹ s⁻¹; in series [2], 280000 M⁻¹ s⁻¹; in [3], 1700 M⁻¹ s⁻¹; in series [4], 340000 M⁻¹ s⁻¹; in [5], 340000 M⁻¹ s⁻¹; in series [6], 760000 M⁻¹ s⁻¹. Besides, the Km in series [7] came to 30 µM; in series [8], 13 µM; in [9], 230 µM; in [10] it was 1.6 µM; in series [11], 90 µM; in series [12] it was 510 µM. Moreover, the kcat turned out to be 60 s⁻¹ in series [7]; 3.6 s⁻¹ in [8]; 0.38 s⁻¹ in series [9]; 0.55 s⁻¹ in series [10]; 31 s⁻¹ in series [11]; 390 s⁻¹ in series [12].

B2: Beta-lactamase OXA-10 (Pseudomonas aeruginosa), P14489 (protein)
chain: MKTFAAYVIIACLSSTALAGSITENTSWNKEFSAEAVNGVFVLCKSSSKSCATNDLARASKEYLPASTFKIPNAIIGLETGVIKNEHQVFKWDGKPRAMKQWERDLTLRGAIQVSAVPVFQQIAREVGEVRMQKYLKKFSYGNQNISGGIDKFWLEGQLRISAVNQVEFLESLYLNKLSASKENQLIVKEALVTEAAPEYLVHSKTGFSGVGTESNPGVAWWVGWVEKETEVYFFAFNMDIDNESKLPLRKSIPTKIMESEGIIGG
In the case of B2, the Km in [13] is 7.9 µM; in series [18] it was 200 µM. Also, the turnover number (kcat) is 86 s⁻¹ in series [13]; under 0.005 s⁻¹ in series [14]; under 0.0095 s⁻¹ in series [15]; under 0.0073 s⁻¹ in series [16]; under 0.014 s⁻¹ in series [17]; 16 s⁻¹ in [18]. Moreover, the kcat/Km in series [19] was 1.1e+07 M⁻¹ s⁻¹; in series [20], 80000 M⁻¹ s⁻¹.

B3: Beta-lactamase SHV-1 (Klebsiella pneumoniae), P0AD64 (protein)
chain: MRYIRLCIISLLATLPLAVHASPQPLEQIKLSESQLSGRVGMIEMDLASGRTLTAWRADERFPMMSTFKVVLCGAVLARVDAGDEQLERKIHYRQQDLVDYSPVSEKHLADGMTVGELCAAAITMSDNSAANLLLATVGGPAGLTAFLRQIGDNVTRLDRWETELNEALPGDARDTTTPASMAATLRKLLTSQRLSARSQRQLLQWMVDDRVAGPLIRSVLPAGWFIADKTGAGERGARGIVALLGPNNKAERIVVIYLRDTPASMAERNQQIAGIGAALIEHWQR
For the protein B3, the kcat was 1100 s⁻¹ in series [21]; 0.0017 s⁻¹ in [22]; 0.003 s⁻¹ in series [23]; 0.054 s⁻¹ in [24]; 410 s⁻¹ in series [25]. In addition, the Km amounted to 4.2 µM in series [22], 4.3 µM in series [23] and 23 µM in series [24]. Besides, the kcat/Km in [26] came to 6.9e+07 M⁻¹ s⁻¹; in series [27], 400 M⁻¹ s⁻¹; in [28], 700 M⁻¹ s⁻¹; in [29] it was 2400 M⁻¹ s⁻¹; in [30], 2.6e+06 M⁻¹ s⁻¹.

B4: Beta-lactamase IMP-1 (Pseudomonas aeruginosa), Q8G9Q0 (protein)
chain: MNSPKSRALLGFMGAFCLLLVAGAPLSAKSSDHVDLPYNLTATKIDSDVFVVTDRDFYSSNVLVAKMLDGTVVIVSSPFENLGTQTLMDWVAKTMKPKKVVAINTHFHLDGTGGNEIYKKMGAETWSSDLTKQLRLEENKKDRIKAAEFYKNEDLKRRILSSHPVPADNVFDLKQGKVFSFSNELVEVSFPGPAHSPDNVVVYFPKKKLLFGGCMIKPKELGYLGDANVKAWPDSARRLKKFDAKIVIPGHGEWGGPEMVNKTIKVAEKAVGEMRL
Regarding B4, the kcat/Km in series [31] is 2.5e+06 M⁻¹ s⁻¹; in [32], 4e+06 M⁻¹ s⁻¹; in [33] it was 740000 M⁻¹ s⁻¹; in series [34], 3.7e+06 M⁻¹ s⁻¹; in series [35], 5.8e+06 M⁻¹ s⁻¹; in series [36] it was 1.3e+07 M⁻¹ s⁻¹. Besides, the Km in series [37] was determined as 550 µM; in series [38] it was 6.5 µM; in series [39], 50 µM; in [40] it was 30 µM; in series [41], 33 µM; in [42], 21 µM. Besides, the kcat in series [37] was 1400 s⁻¹; in series [38] it was 26 s⁻¹; in series [39] it was 37 s⁻¹; in series [40], 110 s⁻¹; in series [41], 190 s⁻¹; in series [42], 270 s⁻¹.

Usually kcat/Km stands for the second-order rate constant that governs catalysis at low substrate concentration. As usually defined, the Km is the concentration of substrate that gives half-maximal velocity. What is called kcat is the maximal rate divided by the concentration of active sites.
